Positions of bridges follow the written chain, without caps; N, C: chain ends. Non-standard residues stand in square brackets, D forms with d. ABM2 = diphenyl-cyclohexanol phosphate ester hexanoic acid tag; Trp(1-Me) = Cn1cc(C[C@H](N)C(=O)O)c2ccccc21; NMeI = CC[C@H](C)[C@H](NC)C(=O)O; Sar = CNCC(=O)O
Key:
[1] = target: plasma proteins of C3-depleted serum; assay: rapid equilibrium dialysis, 5 µM peptide, C3-depleted serum, 37 °C 24 h, UPLC-HDMS
[2] = target: plasma proteins of C3-depleted serum; assay: rapid equilibrium dialysis, 10 µM peptide, C3-depleted serum, 37 °C 24 h, UPLC-HDMS
[3] = target: plasma proteins of C3-positive serum (C3-depleted serum with 5 µM purified C3 added); assay: rapid equilibrium dialysis, 5 µM peptide, C3-positive serum (5 µM C3), 37 °C 24 h, UPLC-HDMS
[4] = target: plasma proteins of C3-positive serum (C3-depleted serum with 5 µM purified C3 added); assay: rapid equilibrium dialysis, 10 µM peptide, C3-positive serum (5 µM C3), 37 °C 24 h, UPLC-HDMS

B1: ABM2-Cp20 (ABM2-Ile-[Cys-Val-Trp(Me)-Gln-Asp-Trp-Sar-Ala-His-Arg-Cys]-mIle-NH2) (peptide)
peptide: ABM2-ICVWQDW[Sar]AHRC[NMeI]-NH2
modifications: disulfide 2-12; not fully specified (residue 4); printed as ABM2-Ile-[Cys-Val-Trp(Me)-Gln-Asp-Trp-Sar-Ala-His-Arg-Cys]-mIle-NH2
How did the % bound [1] turn out when B1 was run?
Its % bound is greater than 99%.

What about the % bound [2] of the same binder?
Its % bound is greater than 99%.

What about the % bound [3] of the same binder?
Its % bound is greater than 99%.

And the % bound [4]?
The % bound was greater than 99%.

B2: Cp20 (Ac-Ile-[Cys-Val-Trp(Me)-Gln-Asp-Trp-Sar-Ala-His-Arg-Cys]-mIle-NH2) (peptide)
peptide: Ac-ICV[Trp(1-Me)]QDW[Sar]AHRC[NMeI]-NH2
modifications: disulfide 2-12
SMILES: CC[C@H](C)[C@H](NC(C)=O)C(=O)N[C@H]1CSSC[C@@H](C(=O)N(C)[C@H](C(N)=O)[C@@H](C)CC)NC(=O)[C@H](CCCNC(=N)N)NC(=O)[C@H](Cc2c[nH]cn2)NC(=O)[C@H](C)NC(=O)CN(C)C(=O)[C@H](Cc2c[nH]c3ccccc23)NC(=O)[C@H](CC(=O)O)NC(=O)[C@H](CCC(N)=O)NC(=O)[C@H](Cc2cn(C)c3ccccc23)NC(=O)[C@H](C(C)C)NC1=O
Which results are given for B2?
% bound [1]: 7%; % bound [2]: 3%; % bound [3]: > 99%; % bound [4]: 84%

From patent publication US20170173107A1
